Experimental data reported in article PMC8805025.

tested on: CcNsdD2-C (C-terminal DNA-binding domain of CcNsdD2) (Coprinopsis cinerea AmutBmut (pab1-1)), ORF:b1e54c23; experiment: EMSA; details: EMSA: 30 uL, 1x EMSA binding buffer (composition not given), 1.5 ug salmon sperm DNA, 50 ng probe, 4 ug CcNsdD2-C, 37 C 30 min; 5% PAGE in 1x TBE pH 8.3
Sequence (chain, as listed by the source): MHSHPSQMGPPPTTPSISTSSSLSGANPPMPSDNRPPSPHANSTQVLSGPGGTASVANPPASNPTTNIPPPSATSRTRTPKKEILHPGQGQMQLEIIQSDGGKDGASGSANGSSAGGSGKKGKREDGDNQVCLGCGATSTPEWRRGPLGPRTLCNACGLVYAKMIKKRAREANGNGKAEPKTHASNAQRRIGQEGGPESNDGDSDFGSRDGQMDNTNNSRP

binding, binds:
AGCACGTGGTCGAAAGCCGTGGTTGGGCAGATGTGGTGGGTGAAGATCGGCAAAAATAACAGGACGCGATCTATGAAAAGTCACGGATTCGCGAAGGGGGCAAATAGATCGCGTAGGAGCAAAAGGCGTGTGCATCGCGCGCTTTGGTTACTTTCGACCACGTGCT (double strand) [cfs1 promoter probe], AGCACGTGGTCGAAAGCGTACTGTGGAGCAGGGAGAACGTTTGAAGATACCGAAGAAGCATCGGCTAGACCAAATCAAGCAGATCGGTGTACAGATATAGAATGTTTAGCTTGTTATTCGGTTCCAAGGAATACAGTCACAGCTCAGGAGCTTTCGACCACGTGCT (double strand) [hyd1 promoter probe], AGCACGTGGTCGAAAGGAAGTTGCTGTATACTCGATGACACTCAAGAGTGAGAGGGTTTCGGCCCGTGAGAGTTTCAAGCGGAGATCAAAAGCGATACAGTGATTAGATTAAAACAACGAGTAGATAAGATGGAGATCTTTCGACCACGTGCT (double strand) [cfs2 promoter probe], AGCACGTGGTCGAAAGTCAGACGAAATCGCCGATTCGCCGAACTCAAGGCCAAATGCATTTTAAACTCCGATCTCGGTGGGTCGCTCACCGATAGATCTCAAAACGATTTCGTTTCTGTGACGAGCATGGCTTCGACGCATTATCCAACGGCTCCTTTCGACCACGTGCT (double strand) [nsdD1 promoter probe], AGCACGTGGTCGAAAGTTCGCAATTTCATTGCATCCCTGAGCCACCTGACCACCGGAGATCGCTGAATATTGCTTGGGCCAGATATGACCAGAGTTAGCTTGATAGATCGGCATCCCCAATGACGGAGATGAAGTCGGAAGAGCCGAATCCTTTCGACCACGTGCT (double strand) [cgl1 promoter probe]
